Data reported in IntAct's records for PubMed 31515488.

B1: Centriolar satellite-associated tubulin polyglutamylase complex regulator 1 (Homo sapiens), Q9H6J7 (parent)
chain: MLSPERLALPDYEYLAQRHVLTYMEDAVCQLLENREDISQYGIARFFTEYFNSVCQGTHILFREFSFVQATPHNRVSFLRAFWRCFRTVGKNGDLLTMKEYHCLLQLLCPDFPLELTQKAARIVLMDDAMDCLMSFSDFLFAFQIQFYYSEFLDSVAAIYEDLLSGKNPNTVIVPTSSSGQHRQRPALGGAGTLEGVEASLFYQCLENLCDRHKYSCPPPALVKEALSNVQRLTFYGFLMALSKHRGINQALGALPDKGDLMHDPAMDEELERLLAQVPGLVNSVTASPEASCLPSRTPPRVGSPWRPLHHSRKVDGESDGSTEETDESET
partner: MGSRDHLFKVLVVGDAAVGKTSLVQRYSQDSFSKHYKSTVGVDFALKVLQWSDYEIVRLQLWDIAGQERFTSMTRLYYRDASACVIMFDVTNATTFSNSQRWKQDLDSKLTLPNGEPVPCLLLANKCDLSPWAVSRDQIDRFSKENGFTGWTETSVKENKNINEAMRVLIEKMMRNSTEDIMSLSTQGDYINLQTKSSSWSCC
B2: Microtubule-associated tumor suppressor candidate 2 (Homo sapiens), Q5JR59-3 (parent)
chain: MGHCCCKPYNCLQCLDKTNESALVKEKELSIELANIRDEVAFHTAKCEKLQKEKEELERRFEDEVKRLGWQQQAELQELEERLQLQFEAEMARLQEEHGDQLLSIRCQHQEQVEDLTASHDAALLEMENNHTVAITILQDDHDHKVQELMSTHELEKKELEENFEKLRLSLQDQVDTLTFQSQSLRDRARRFEEALRKNTEEQLEIALAPYQHLEEDMKSLKQVLEMKNQQIHEQEKKILELEKLAEKNIILEEKIQVLQQQNEDLKARIDQNTVVTRQLSEENANLQEYVEKETQEKKRLSRTNEELLWKLQTGDPTSPIKLSPTSPVYRGSSSGPSSPARVSTTPR
partner: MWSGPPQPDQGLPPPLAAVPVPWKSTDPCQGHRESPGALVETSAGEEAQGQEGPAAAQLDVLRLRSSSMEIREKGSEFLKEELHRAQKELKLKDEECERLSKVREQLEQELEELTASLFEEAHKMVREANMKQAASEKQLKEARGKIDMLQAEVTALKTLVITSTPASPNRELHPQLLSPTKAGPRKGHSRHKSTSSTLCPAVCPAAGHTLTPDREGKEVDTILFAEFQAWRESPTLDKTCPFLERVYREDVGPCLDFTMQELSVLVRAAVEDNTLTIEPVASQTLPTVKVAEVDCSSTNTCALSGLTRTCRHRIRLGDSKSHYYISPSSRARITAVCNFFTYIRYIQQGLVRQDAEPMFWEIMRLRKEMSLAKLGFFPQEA
B3: Isoform 1 of 1-aminocyclopropane-1-carboxylate synthase-like protein 1 (Homo sapiens), Q96QU6-1 (parent)
chain: MFTLPQKDFRAPTTCLGPTCMQDLGSSHGEDLEGECSRKLDQKLPELRGVGDPAMISSDTSYLSSRGRMIKWFWDSAEEGYRTYHMDEYDEDKNPSGIINLGTSENKLCFDLLSWRLSQRDMQRVEPSLLQYADWRGHLFLREEVAKFLSFYCKSPVPLRPENVVVLNGGASLFSALATVLCEAGEAFLIPTPYYGAITQHVCLYGNIRLAYVYLDSEVTGLDTRPFQLTVEKLEMALREAHSEGVKVKGLILISPQNPLGDVYSPEELQEYLVFAKRHRLHVIVDEVYMLSVFEKSVGYRSVLSLERLPDPQRTHVMWATSKDFGMSGLRFGTLYTENQDVATAVASLCRYHGLSGLVQYQMAQLLRDRDWINQVYLPENHARLKAAHTYVSEELRALGIPFLSRGAGFFIWVDLRKYLPKGTFEEEMLLWRRFLDNKVLLSFGKAFECKEPGWFRFVFSDQVHRLCLGMQRVQQVLAGKSQVAEDPRPSQSQEPSDQRR
partner: B3 chain
B4: TBC1 domain family member 5 (Homo sapiens), Q92609 (parent)
chain: MYHSLSETRHPLQPEEQEVGIDPLSSYSNKSGGDSNKNGRRTSSTLDSEGTFNSYRKEWEELFVNNNYLATIRQKGINGQLRSSRFRSICWKLFLCVLPQDKSQWISRIEELRAWYSNIKEIHITNPRKVVGQQDLMINNPLSQDEGSLWNKFFQDKELRSMIEQDVKRTFPEMQFFQQENVRKILTDVLFCYARENEQLLYKQGMHELLAPIVFVLHCDHQAFLHASESAQPSEEMKTVLNPEYLEHDAYAVFSQLMETAEPWFSTFEHDGQKGKETLMTPIPFARPQDLGPTIAIVTKVNQIQDHLLKKHDIELYMHLNRLEIAPQIYGLRWVRLLFGREFPLQDLLVVWDALFADGLSLGLVDYIFVAMLLYIRDALISSNYQTCLGLLMHYPFIGDVHSLILKALFLRDPKRNPRPVTYQFHPNLDYYKARGADLMNKSRTNAKGAPLNINKVSNSLINFGRKLISPAMAPGSAGGPVPGGNSSSSSSVVIPTRTSAEAPSHHLQQQQQQQRLMKSESMPVQLNKGLSSKNISSSPSVESLPGGREFTGSPPSSATKKDSFFSNISRSRSHSKTMGRKESEEELEAQISFLQGQLNDLDAMCKYCAKVMDTHLVNIQDVILQENLEKEDQILVSLAGLKQIKDILKGSLRFNQSQLEAEENEQITIADNHYCSSGQGQGRGQGQSVQMSGAIKQASSETPGCTDRGNSDDFILISKDDDGSSARGSFSGQAQPLRTLRSTSGKSQAPVCSPLVFSDPLMGPASASSSNPSSSPDDDSSKDSGFTIVSPLDI
B5: Protein BANP (Homo sapiens), Q8N9N5-2 (parent)
chain: MMSEHDLADVVQIAVEDLSPDHPVVLENHVVTDEDEPALKRQRLEINCQDPSIKSFLYSINQTICLRLDSIEAKLQALEATCKSLEEKLDLVTNKQHSPIQVPMVAGSPLGATQTCNKVRCAVPGRRQNTIVVKVPGQEDSHHEDGESGSEASDSVSSCGQAGSQSIGSNVTLITLNSEEDYPNGTWLGDENNPEMRVRCAIIPSDMLHISTNCRTAEKMALTLLDYLFHREVQAVSNLSGQGKHGKKQLDPLTIYGIRCHLFYKFGITESDWYRIKQSIDSKCRTAWRRKQRGQSLAVKSFSRRTPNSSSYCPSEPMMSTPPPASELPQPQPQPQALHYALANAQQVQIHQIGEDGQVQVIPQGHLHIAQVPQGEQVQITQDSEGNLQIHHVGQDGQVLQGAQLIAVASSDPAAAGVDGSPLQGSDIQVQYVQLAPVSDHTAGAQTAEALQPTLQPEMQLEHGAIQIQ
partner: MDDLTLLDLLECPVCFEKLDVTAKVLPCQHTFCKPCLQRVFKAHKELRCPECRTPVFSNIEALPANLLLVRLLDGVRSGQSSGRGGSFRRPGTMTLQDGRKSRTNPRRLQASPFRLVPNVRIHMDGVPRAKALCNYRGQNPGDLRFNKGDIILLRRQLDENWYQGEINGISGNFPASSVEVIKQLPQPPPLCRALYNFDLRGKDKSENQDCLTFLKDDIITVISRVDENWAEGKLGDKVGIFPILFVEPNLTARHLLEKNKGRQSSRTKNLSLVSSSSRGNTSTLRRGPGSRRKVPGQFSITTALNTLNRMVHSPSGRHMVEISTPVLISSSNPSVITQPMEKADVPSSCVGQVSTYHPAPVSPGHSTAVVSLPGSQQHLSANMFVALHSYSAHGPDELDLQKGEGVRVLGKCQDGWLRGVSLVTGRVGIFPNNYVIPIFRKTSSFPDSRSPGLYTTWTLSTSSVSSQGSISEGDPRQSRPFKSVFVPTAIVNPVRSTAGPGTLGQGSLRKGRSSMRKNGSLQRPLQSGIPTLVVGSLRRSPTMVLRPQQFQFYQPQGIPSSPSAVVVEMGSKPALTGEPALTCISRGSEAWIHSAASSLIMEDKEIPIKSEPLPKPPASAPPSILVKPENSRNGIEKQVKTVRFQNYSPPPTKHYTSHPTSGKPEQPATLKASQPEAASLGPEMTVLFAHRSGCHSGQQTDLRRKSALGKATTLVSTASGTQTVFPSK

Variants of: B1
Conditions: with rab7l_human RAB29, O14966

Row | effect of a mutation on the interaction | Variant
1 | with no effect | S177L

Variants of: B2
Conditions: with RAB3IL1, Q8TBN0

Row | effect of a mutation on the interaction | Variant
2 | with no effect | A89V

Variants of: B3
Conditions: with 1a1l1_human ACCS

Row | effect of a mutation on the interaction | Variant
3 | disrupting interaction strength | S393L

Variants of: B4
Conditions: with ap2m1_human AP2M1, Q96CW1
ap2m1_human AP2M1, Q96CW1, sequence (Q96CW1 whole entry): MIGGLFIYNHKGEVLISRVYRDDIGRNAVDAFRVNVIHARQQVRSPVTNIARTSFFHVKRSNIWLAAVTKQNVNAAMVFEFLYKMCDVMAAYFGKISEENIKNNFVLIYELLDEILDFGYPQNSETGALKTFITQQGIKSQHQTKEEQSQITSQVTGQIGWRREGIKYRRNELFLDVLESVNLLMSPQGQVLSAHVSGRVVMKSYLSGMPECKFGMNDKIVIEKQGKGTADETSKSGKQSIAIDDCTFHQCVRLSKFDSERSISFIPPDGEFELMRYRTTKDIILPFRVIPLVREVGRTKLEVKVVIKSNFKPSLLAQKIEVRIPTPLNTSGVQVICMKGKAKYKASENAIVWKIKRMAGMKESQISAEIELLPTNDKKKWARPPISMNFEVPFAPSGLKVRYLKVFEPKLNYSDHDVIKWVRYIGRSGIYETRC

Row | effect of a mutation on the interaction | Variant
4 | with no effect | Y375C

Variants of: B5
Conditions: with sh3r2_human SH3RF2, Q8TEC5

Row | effect of a mutation on the interaction | Variant
5 | with no effect | A162V
